Assays:
hIL2Rβ [1] = experiment: literature reference; Charych, PLOS ONE 2017
hIL2Rα [2] = experiment: literature reference; Charych, PLOS ONE 2017
hIL2Rβ [3] = experiment: literature reference; Stauber, PNAS 2006
hIL2Rα [4] = experiment: literature reference; Stauber, PNAS 2006

Kd (hIL2Rβ [1])	Kd (hIL2Rα [2])	Kd (hIL2Rβ [3])	Kd (hIL2Rα [4])	Substance
1770 nM	190 nM			NKTR-214 (1-PEG-IL2)
3950 nM	487 nM			NKTR-214 (2-PEG-IL2)
239 nM	8.6 nM			NKTR-214 (IL2)
		144 nM	10 nM	hIL2w

— US11857601
